B1: EF-hand domain-containing protein 1 (Homo sapiens), Q5JVL4 (parent)
chain: MVSNPVHGLPFLPGTSFKDSTKTAFHRSQTLSYRNGYAIVRRPTVGIGGDRLQFNQLSQAELDELASKAPVLTYGQPKQAPPADFIPAHVAFDKKVLKFDAYFQEDVPMSTEEQYRIRQVNIYYYLEDDSMSVIEPVVENSGILQGKLIKRQRLAKNDRGDHYHWKDLNRGINITIYGKTFRVVDCDQFTQVFLESQGIELNPPEKMALDPYTELRKQPLRKYVTPSDFDQLKQFLTFDKQVLRFYAIWDDTDSMYGECRTYIIHYYLMDDTVEIREVHERNDGRDPFPLLMNRQRVPKVLVENAKNFPQCVLEISDQEVLEWYTAKDFIVGKSLTILGRTFFIYDCDPFTRRYYKEKFGITDLPRIDVSKREPPPVKQELPPYNGFGLVEDSAQNCFALIPKAPKKDVIKMLVNDNKVLRYLAVLESPIPEDKDRRFVFSYFLATDMISIFEPPVRNSGIIGGKYLGRTKVVKPYSTVDNPVYYGPSDFFIGAVIEVFGHRFIILDTDEYVLKYMESNAAQYSPEALASIQNHVRKREAPAPEAESKQTEKDPGVQELEALIDTIQKQLKDHSCKDNIREAFQIYDKEASGYVDRDMFFKICESLNVPVDDSLVKELIRMCSHGEGKINYYNFVRAFSN
partner: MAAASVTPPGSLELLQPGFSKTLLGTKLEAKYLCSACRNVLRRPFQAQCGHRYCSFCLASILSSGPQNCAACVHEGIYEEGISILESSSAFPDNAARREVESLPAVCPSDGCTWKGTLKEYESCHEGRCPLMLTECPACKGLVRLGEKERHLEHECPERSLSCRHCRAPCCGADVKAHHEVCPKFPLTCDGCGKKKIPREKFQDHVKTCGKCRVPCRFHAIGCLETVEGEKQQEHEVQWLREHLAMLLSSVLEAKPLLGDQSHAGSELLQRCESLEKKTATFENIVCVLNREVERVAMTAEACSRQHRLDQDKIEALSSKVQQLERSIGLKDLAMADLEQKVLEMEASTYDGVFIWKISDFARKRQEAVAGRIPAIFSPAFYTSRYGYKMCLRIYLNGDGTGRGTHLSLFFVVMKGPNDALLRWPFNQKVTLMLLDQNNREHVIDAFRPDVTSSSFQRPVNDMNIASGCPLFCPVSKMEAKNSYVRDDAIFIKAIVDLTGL
B2: PiggyBac transposable element-derived protein 1 (Homo sapiens), Q96JS3 (parent)
chain: MYEALPGPAPENEDGLVKVKEEDPTWEQVCNSQEGSSHTQEICRLRFRHFCYQEAHGPQEALAQLRELCHQWLRPEMHTKEQIMELLVLEQFLTILPKELQPCVKTYPLESGEEAVTVLENLETGSGDTGQQASVYIQGQDMHPMVAEYQGVSLECQSLQLLPGITTLKCEPPQRPQGNPQEVSGPVPHGSAHLQEKNPRDKAVVPVFNPVRSQTLVKTEEETAQAVAAEKWSHLSLTRRNLCGNSAQETVMSLSPMTEEIVTKDRLFKAKQETSEEMEQSGEASGKPNRECAPQIPCSTPIATERTVAHLNTLKDRHPGDLWARMHISSLEYAAGDITRKGRKKDKARVSELLQGLSFSGDSDVEKDNEPEIQPAQKKLKVSCFPEKSWTKRDIKPNFPSWSALDSGLLNLKSEKLNPVELFELFFDDETFNLIVNETNNYASQKNVSLEVTVQEMRCVFGVLLLSGFMRHPRREMYWEVSDTDQNLVRDAIRRDRFELIFSNLHFADNGHLDQKDKFTKLRPLIKQMNKNFLLYAPLEEYYCFDKSMCECFDSDQFLNGKPIRIGYKIWCGTTTQGYLVWFEPYQEESTMKVDEDPDLGLGGNLVMNFADVLLERGQYPYHLCFDSFFTSVKLLSALKKKGVRATGTIRENRTEKCPLMNVEHMKKMKRGYFDFRIEENNEIILCRWYGDGIISLCSNAVGIEPVNEVSCCDADNEEIPQISQPSIVKVYDECKEGVAKMDQIISKYRVRIRSKKWYSILVSYMIDVAMNNAWQLHRACNPGASLDPLDFRRFVAHFYLEHNAHLSD
partner: B1 partner
B3: U4/U6 small nuclear ribonucleoprotein Prp31 (Homo sapiens), Q8WWY3 (parent)
chain: MSLADELLADLEEAAEEEEGGSYGEEEEEPAIEDVQEETQLDLSGDSVKTIAKLWDSKMFAEIMMKIEEYISKQAKASEVMGPVEAAPEYRVIVDANNLTVEIENELNIIHKFIRDKYSKRFPELESLVPNALDYIRTVKELGNSLDKCKNNENLQQILTNATIMVVSVTASTTQGQQLSEEELERLEEACDMALELNASKHRIYEYVESRMSFIAPNLSIIIGASTAAKIMGVAGGLTNLSKMPACNIMLLGAQRKTLSGFSSTSVLPHTGYIYHSDIVQSLPPDLRRKAARLVAAKCTLAARVDSFHESTEGKVGYELKDEIERKFDKWQEPPPVKQVKPLPAPLDGQRKKRGGRRYRKMKERLGLTEIRKQANRMSFGEIEEDAYQEDLGFSLGHLGKSGSGRVRQTQVNEATKARISKTLQRTLQKQSVVYGGKSTIRDRSSGTASSVAFTPLQGLEIVNPQAAEKKVAEANQKYFSSMAEFLKVKGEKSGLMST
partner: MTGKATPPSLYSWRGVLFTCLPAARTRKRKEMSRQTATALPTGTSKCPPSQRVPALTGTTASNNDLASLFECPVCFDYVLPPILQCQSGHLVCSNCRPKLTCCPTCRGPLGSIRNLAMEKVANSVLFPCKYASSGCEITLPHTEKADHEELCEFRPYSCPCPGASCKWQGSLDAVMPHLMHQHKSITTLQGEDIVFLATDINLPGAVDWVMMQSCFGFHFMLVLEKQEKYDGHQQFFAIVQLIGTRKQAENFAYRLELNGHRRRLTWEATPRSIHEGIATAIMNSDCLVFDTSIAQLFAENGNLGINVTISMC
B4: EGF-containing fibulin-like extracellular matrix protein 1 (Homo sapiens), Q12805 (parent)
chain: MLKALFLTMLTLALVKSQDTEETITYTQCTDGYEWDPVRQQCKDIDECDIVPDACKGGMKCVNHYGGYLCLPKTAQIIVNNEQPQQETQPAEGTSGATTGVVAASSMATSGVLPGGGFVASAAAVAGPEMQTGRNNFVIRRNPADPQRIPSNPSHRIQCAAGYEQSEHNVCQDIDECTAGTHNCRADQVCINLRGSFACQCPPGYQKRGEQCVDIDECTIPPYCHQRCVNTPGSFYCQCSPGFQLAANNYTCVDINECDASNQCAQQCYNILGSFICQCNQGYELSSDRLNCEDIDECRTSSYLCQYQCVNEPGKFSCMCPQGYQVVRSRTCQDINECETTNECREDEMCWNYHGGFRCYPRNPCQDPYILTPENRCVCPVSNAMCRELPQSIVYKYMSIRSDRSVPSDIFQIQATTIYANTINTFRIKSGNENGEFYLRQTSPVSAMLVLVKSLSGPREHIVDLEMLTVSSIGTFRTSSVLRLTIIVGPFSF
partner: B1 partner
B5: Transmembrane protein 43 (Homo sapiens), Q9BTV4 (parent)
chain: MAANYSSTSTRREHVKVKTSSQPGFLERLSETSGGMFVGLMAFLLSFYLIFTNEGRALKTATSLAEGLSLVVSPDSIHSVAPENEGRLVHIIGALRTSKLLSDPNYGVHLPAVKLRRHVEMYQWVETEESREYTEDGQVKKETRYSYNTEWRSEIINSKNFDREIGHKNPSAMAVESFMATAPFVQIGRFFLSSGLIDKVDNFKSLSLSKLEDPHVDIIRRGDFFYHSENPKYPEVGDLRVSFSYAGLSGDDPDLGPAHVVTVIARQRGDQLVPFSTKSGDTLLLLHHGDFSAEEVFHRELRSNSMKTWGLRAAGWMAMFMGLNLMTRILYTLVDWFPVFRDLVNIGLKAFAFCVATSLTLLTVAAGWLFYRPLWALLIAGLALVPILVARTRVPAKKLE
partner: B3 partner
B6: Carbonic anhydrase-related protein (Homo sapiens), P35219 (parent)
chain: MADLSFIEDTVAFPEKEEDEEEEEEGVEWGYEEGVEWGLVFPDANGEYQSPINLNSREARYDPSLLDVRLSPNYVVCRDCEVTNDGHTIQVILKSKSVLSGGPLPQGHEFELYEVRFHWGRENQRGSEHTVNFKAFPMELHLIHWNSTLFGSIDEAVGKPHGIAIIALFVQIGKEHVGLKAVTEILQDIQYKGKSKTIPCFNPNTLLPDPLLRDYWVYEGSLTIPPCSEGVTWILFRYPLTISQLQIEEFRRLRTHVKGAELVEGCDGILGDNFRPTQPLSDRVIRAAFQ
partner: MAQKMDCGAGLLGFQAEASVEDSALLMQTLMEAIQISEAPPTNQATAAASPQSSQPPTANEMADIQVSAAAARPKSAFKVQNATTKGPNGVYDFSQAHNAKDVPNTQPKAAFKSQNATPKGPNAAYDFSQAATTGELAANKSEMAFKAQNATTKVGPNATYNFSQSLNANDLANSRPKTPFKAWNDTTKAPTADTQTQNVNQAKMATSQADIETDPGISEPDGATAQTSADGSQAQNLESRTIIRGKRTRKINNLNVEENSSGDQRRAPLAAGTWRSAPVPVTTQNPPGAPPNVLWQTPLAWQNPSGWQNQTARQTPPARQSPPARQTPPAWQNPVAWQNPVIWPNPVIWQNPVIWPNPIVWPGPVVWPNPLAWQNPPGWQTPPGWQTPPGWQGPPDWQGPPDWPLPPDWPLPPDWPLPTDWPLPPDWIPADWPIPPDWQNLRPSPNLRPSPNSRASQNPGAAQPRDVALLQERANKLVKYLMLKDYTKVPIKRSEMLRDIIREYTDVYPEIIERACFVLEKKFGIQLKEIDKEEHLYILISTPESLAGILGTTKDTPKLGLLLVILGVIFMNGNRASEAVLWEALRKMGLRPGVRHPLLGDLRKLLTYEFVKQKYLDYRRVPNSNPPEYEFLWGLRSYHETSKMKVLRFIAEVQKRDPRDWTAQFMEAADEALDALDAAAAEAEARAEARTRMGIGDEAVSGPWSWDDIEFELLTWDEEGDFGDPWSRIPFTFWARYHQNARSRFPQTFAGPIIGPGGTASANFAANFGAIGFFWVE

Variants of: B1
Conditions: with traf2_human TRAF2, Q12933

| effect of a mutation on the interaction | Variant |
| --- | --- |
| with no effect | R159W |
| with no effect | M448T |
| disrupting interaction strength | P77T |
| disrupting interaction strength | R221H |
| disrupting interaction strength | A394S |

Variants of: B2
Conditions: with traf2_human TRAF2, Q12933

| effect of a mutation on the interaction | Variant |
| --- | --- |
| with no effect | G244E |
| with no effect | Q248E |
| with no effect | H806D |
| with no effect | P256L |
| with no effect | I678V |

Variants of: B3
Conditions: with SIAH1, Q8IUQ4-2

| effect of a mutation on the interaction | Variant |
| --- | --- |
| with no effect | L107V |

Variants of: B4
Conditions: with traf2_human TRAF2, Q12933

| effect of a mutation on the interaction | Variant |
| --- | --- |
| with no effect | R345W |

Variants of: B5
Conditions: with SIAH1, Q8IUQ4-2

| effect of a mutation on the interaction | Variant |
| --- | --- |
| with no effect | S358L |

Variants of: B6
Conditions: with magd1_human MAGED1, Q9Y5V3

| effect of a mutation on the interaction | Variant |
| --- | --- |
| disrupting interaction strength | S100P |

From IntAct's records for PubMed 25910212
